Target: bovine hemoglobin (bovine) (UniProt P01966)
Test: solid-phase ligand binding assay (ELISA), hemoglobin-coated wells; one value printed for rHA2, RgpA and Kgp

Chain of UniProt P01966 (P01966 2-142 limits assumed, chain 1 of 2): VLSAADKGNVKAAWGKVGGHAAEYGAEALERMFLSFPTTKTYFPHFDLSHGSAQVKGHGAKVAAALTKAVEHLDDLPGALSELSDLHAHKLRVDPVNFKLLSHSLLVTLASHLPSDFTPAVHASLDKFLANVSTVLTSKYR
Chain of UniProt P01966 (P02070 whole entry, chain 2 of 2, further chain): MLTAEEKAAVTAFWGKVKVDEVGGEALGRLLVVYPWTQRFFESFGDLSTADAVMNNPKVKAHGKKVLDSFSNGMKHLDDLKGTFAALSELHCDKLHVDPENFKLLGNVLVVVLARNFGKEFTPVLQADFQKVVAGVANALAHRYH

Substance: polydomain Arg-gingipain RgpA isolated from P. gingivalis (ATCC 33277) (from UniProt P28784 228-991) (enzyme)
- Kd: 2.1 nM
